Assay results taken from the supplement of paper PMC12338614.

B1: library; numbered along this chain (parent)
chain: MEVVDPQQLGMFTEGELMSVGMDTFIHRIDSTEVIYQPRRKRAKLIGKYLMGDLLGEGSYGKVKEVLDSETLCRRAVKILKKKKLRRIPNGEANVKKEIQLLRRLRHKNVIQLVDVLYNEEKQKMYMVMEYCVCGMQEMLDSVPEKRFPVCQAHGYFCQLIDGLEYLHSQGIVHKDIKPGNLLLTTGGTLKISDLGVAEALHPFAADDTCRTSQGSPAFQPPEIANGLDTFSGFKVDIWSAGVTLYNITTGLYPFEGDNIYKLFENIGKGSYAIPGDCGPPLSDLLKGMLEYEPAKRFSIRQIRQHSWFRKKHPPAEAPVPIPPSPDTKDRWRSMTVVPYLEDLHGADEDEDLFDIEDDIIYTQDFTVPGQVPEEEASHNGQRRGLPKAVCMNGTEAAQLSTKSRAEGRAPNPARKACSASSKIRRLSACKQQ

Variants of: B1
Experiment: STK11 functional score (HeLa growth suppression), rescaled enrichment; synonymous median = 1, nonsense median = 0 (normalised score)
Conditions: with HeLa; variant type: missense
Procedure, shortened: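 Functional scores are post/pre-selection log ratios corrected to wild type, rescaled to synonymous and nonsense medians, merged over codons and replicate transfections, and given bootstrapped error. They come from POPCode libraries of codon-optimised STK11 integrated by Bxb1 at an AAVS1 landing pad in HeLa, three regions each transfected three times, with BFP-negative, mCherry-positive integrants sorted by FACS and tiled gDNA amplicons sequenced on NextSeq.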

STK11 functional score of substitutions, site by site:
G233: S 1.44, W 1.16, D 1.56, R 0.173, N 1.19, L 1.57, Y 1.04, A 1.3, C 1.43, F 1.46, T 1.7, Q 1.62, V 0.47
W239: L 0.325, P -0.0966, C 0.0722, G -0.0583, D -0.00743, R 0.273, Y 0.934, M 0.267, I -0.18, E -0.254, T -0.0973, A 0.388, H 0.199, K 0.155, S 0.00373, V -0.13
D237: H 1.53, E 0.97, N 1.36
I248: C 1, L 1.05, P -0.0931, H -0.139, V 0.854, E 0.873, R -0.248, F 0.497, Q 1.25, T 1.15, A 1.15, Y 0.287, D 0.0228, G 0.0645, W 0.853, M 1.24, S 0.859
T249: H 1.64, V 1.56, I 0.664, P -0.0108, E -0.289, R 1.28, K -0.0774, A 0.412, D -0.107, S 1.24, W 0.0979, G 0.293, L 1.08, N 0.652, M 1.47
T230: F 0.961, H 1.46, L 0.829, M 0.971, P 1.1, K 1.29, G 0.522, N 1.2, R 1.39, Q 1.39, C 1.19, V 1.5, E 1.65, W 1.17, A 0.88, S 0.93
V243: C 1, S 0.561, L 0.714, M 0.378, E 0.204, I 1.42, N 0.56, R 0.16, A 0.996, Q 1.19, T 1.29, F 0.591, W 0.598, H -0.00535, P -0.157, G 0.469, D -0.0994
T250: H 1.65, I 1.35, P -0.224, G 0.834, C 1.22, E 0.89, R 0.727, V 1.24, A 1.01, L 1.45, W 1.48, K 0.0557, F 1.14, S 1.37
S232: R 1.39, A 1.04, K 1.67, E 1.36, Q 1.03, C 1.17, D 1.14, H 1.3, I 1.4, Y 0.917, N 1.28, V 0.841, P 0.971, M 0.515, G 0.97, W 0.692, L 0.996
G242: A 0.823, C -0.0194, D 0.0263, V -0.059, R -0.0649, I -0.186, M -0.0974, L -0.0195, S 0.0147, F 0.0262, P 0.0217, T -0.128, N -0.133, K 0.078, H 0.0155, Y -0.0296, E 0.274
G227: E 0.563, R 0.588, V 0.625, Y 1.46, P 1.1, F 1.14, Q 1.26, S 1.49, D 1.13, T 1.67, W 1.29, A 0.273, L 0.694, C 0.981, M 1.69
I238: S 0.58, N 1.22, C 1.39, V 1.21, F 0.0789, T 1.31, M 0.843, R -0.17
K235: Y 1.19, G 1.28, I 1.06, V 0.794, T 0.534, C 1.4, Q 1.58, L 1.24, N 0.877, H 1.29, A 1.65, P 1.65, S 1.67, W 1.51
F231: A 1.61, G 1.17, N 1.69, V 0.867, D 1.56, P 0.959, W 0.409, E 1.24, Y 0.865, T 1.64, R 1.26, M -0.0118, L 0.842, S 0.515, H 0.765, I 1.62, C 1.33
S240: Q 0.866, H 1.08, P -0.0488, R 0.823, W -0.126, E 1.52, A 0.891, M 0.927, C 1.38, G 1.05, D 0.841, N 1.11, T 1.07, L 0.708, V 0.33, I 0.369
L228: F 1.34, A 1.66, Y 1.25, R 1.68, M 0.601
F234: A 1.35, G 1.33, R 1.5, E 1.59, Y 0.805, W 1.44, C 1.05, L 0.75, V 1.2, S 1.1, D 1.18, I 1.67
N247: R 0.936, S 1.3, F 0.863, G 0.808, D 0.827, A 1.37, L 1.17, K 0.794, H 1.26, I 1.16, Y 1.32, E 1.33, M 0.7, C 1.15, Q 1.17, T 0.951, W 0.698, P -0.0537, V 0.824
L245: T -0.038, P -0.14, G -0.177, A 0.101, D -0.177, K 0.475, I 0.581, R -0.0758, E -0.0467, W -0.0585, H -0.0776, Q 0.383, S -0.117, Y -0.0275, V 0.345, C 0.21, F 0.00828, M 0.526
Y246: H -0.136, I 1.13, F 0.678, M 1.29, V 0.944, C 0.451, L 0.818, A 1.06, W 1.15, R 0.128, S 0.254, E 0.0519, T 0.982, Q 1.11, G 0.403, D -0.149, P -0.0491
T244: V 1.15, H 0.0105, P -0.17, Y 0.127, D -0.0204, W 0.257, A 0.738, C 1.32, G 0.014, I 0.627, E -0.168, F 0.698, M 1.38, S 0.613, R 0.00573, N 0.0991, K 0.388, L 1.02, Q -0.178
A241: T -0.298, P 0.702, S 0.863, C 1.21, D 0.383, G 0.802
V236: C 1.44, L 0.273, W 1.04, I 1.24, A 1.56, S 1.4, F 1.21
D229: E 1.03, R 0.991, M 1.28, S 1.01, V 0.388, Y 0.508, L 1.05, A 0.987, Q 1.49, W 0.347, G 1.03, P 1.68, T 1.67, K 0.652, H 0.539, F 0.981
